Data reported in patent publication US20220098307A1 (WUHAN YZY BIOPHARMA, published 2022).
Where a chain is given by its changes, count along the chain named. Names may count otherwise.

B1: M1IC-DG2-1 (bispecific antibody, human IgG1, kappa)
chain: QVQLVESGGGVVQPGRSLRLSCAASGFTFSTYAMNWVRQAPGKGLEWVARIRSKYNNYATYYADSVKDRFTISRDDSKNTLYLQMNSLRAEDTAVYYCARHGNFGNSYVSWFAYWGQGTLVTVSSGGGGSGGGGSGGGGSQTVVTQEPSLTVSPGGTVTLTCRSSTGAVTTSNYANWVQQKPGQAPRGLIGGTNKRAPGVPARFSGSLLGGKAALTLSGVQPEDEAEYYCALWYSNLWVFGGGTKVEIKGGGGSDKTHTCPPCPAPPVAGPSVFLFPPKPKDTLMISRTPEVTCVVVAVSHEDPEVQFNWYVDGVEVHNAKTKPREEQFNSTFRVVSVLTVVHQDWLNGKEYKCKVSNKGLPAPIEKTISKTKGQPREPQVCTLPPSRDELTKNQVSLSCAVKGFYPSDIAVEWESNGQPENNYKTTPPVLDSDGSFFLVSKLTVDKSRWQQGNVFSCSVMHEALHNHYTQKSLSLSPGK
heavy: EVKLDETGGGLVQPGRPMKLSCVASGFTFSDYWMNWVRQSPEKGLEWVAQIRNKPYNYETYYSDSVKGRFTISRDDSKSSVYLQMNNLRVEDMGIYYCTGSYYGMDYWGQGTSVTVSSASTKGPSVFPLAPSSKSTSGGTAALGCLVKDYFPEPVTVSWNSGALTSGVHTFPAVLQSSGLYSLSSVVTVPSSSLGTQTYICNVNHKPSNTKVDKKVEPKSCDKTHTCPPCPAPPVAGPSVFLFPPKPKDTLMISRTPEVTCVVVAVSHEDPEVQFNWYVDGVEVHNAKTKPREEQFNSTFRVVSVLTVVHQDWLNGKEYKCKVSNKGLPAPIEKTISKTKGQPREPQVYTLPPCRDELTKNQVSLWCLVKGFYPSDIAVEWESNGQPENNYKTTPPVLDSDGSFFLYSKLTVDKSRWQQGNVFSCSVMHEALHNHYTQKSLSLSPGK
light: DVVMTQTPLSLPVSLGDQASISCRSSQSLVHSNGNTYLRWYLQKPGQSPKVLIYKVSNRFSGVPDRFSGSGSGTDFTLKISRVEAEDLGVYFCSQSTHVPWTFGGGTKLEIKRTVAAPSVFIFPPSDEQLKSGTASVVCLLNNFYPREAKVQWKVDNALQSGNSQESVTEQDSKDSTYSLSSTLTLSKADYEKHKVYACEVTHQGLSSPVTKSFNRGEC
notes: structure 1 isotype control; CH2 DG2CH2; also called MlIC-DG2-1
B2: PDL1-M1-G2 (bispecific antibody)
chain: B1 chain with G250R, G252R, A298D
heavy: not shown
light: not shown
notes: structure 1; PD-L1 x CD3; CH2 G2CH2
B3: PDL1-M1-SG2 (bispecific antibody)
chain: B1 chain with G250R, G252R, C263S, A298D
heavy: not shown
light: not shown
notes: structure 1; PD-L1 x CD3; CH2 SG2CH2
B4: M1IC-SG2-1 (bispecific antibody, human IgG1, kappa)
chain: B1 chain with C263S, A298D
heavy: B1 heavy with C230S, A265D
light: B1 light
notes: structure 1 isotype control; CH2 SG2CH2
B5: M1IC-PG2-1 (bispecific antibody, human IgG1, kappa)
chain: B1 chain with C263P, A298D
heavy: B1 heavy with C230P, A265D
light: B1 light
notes: structure 1 isotype control; CH2 PG2CH2
B6: M1IC-DG2D-1 (bispecific antibody, human IgG1, kappa)
chain: B1 chain with D303A
heavy: B1 heavy with D270A
light: B1 light
notes: structure 1 isotype control; CH2 DG2DCH2
B7: M1IC-GG2-1 (bispecific antibody, human IgG1, kappa)
chain: B1 chain with C263G, A298D
heavy: B1 heavy with C230G, A265D
light: B1 light
notes: structure 1 isotype control; CH2 GG2CH2
B8: M1IC-G2D-1 (bispecific antibody, human IgG1, kappa)
chain: B1 chain with A298D, D303A
heavy: B1 heavy with A265D, D270A
light: B1 light
notes: structure 1 isotype control; CH2 G2DCH2
B9: PDL1-M1-FES (bispecific antibody)
chain: QVQLVESGGGVVQPGRSLRLSCAASGFTFSTYAMNWVRQAPGKGLEWVARIRSKYNNYATYYADSVKDRFTISRDDSKNTLYLQMNSLRAEDTAVYYCARHGNFGNSYVSWFAYWGQGTLVTVSSGGGGSGGGGSGGGGSQTVVTQEPSLTVSPGGTVTLTCRSSTGAVTTSNYANWVQQKPGQAPRGLIGGTNKRAPGVPARFSGSLLGGKAALTLSGVQPEDEAEYYCALWYSNLWVFGGGTKVEIKRGRGSDKTHTCPPCPAPEFEGGPSVFLFPPKPKDTLMISRTPEVTCVVVDVSHEDPEVKFNWYVDGVEVHNAKTKPREEQYNSTYRVVSVLTVLHQDWLNGKEYKCKVSNKALPASIEKTISKAKGQPREPQVCTLPPSRDELTKNQVSLSCAVKGFYPSDIAVEWESNGQPENNYKTTPPVLDSDGSFFLVSKLTVDKSRWQQGNVFSCSVMHEALHNHYTQKSLSLSPGK
heavy: not shown
light: not shown
notes: structure 1; PD-L1 x CD3; CH2 FES
B10: PDL1-M1-LALA (bispecific antibody)
chain: B9 chain with F268A, E269A, S365P
heavy: not shown
light: not shown
notes: structure 1; PD-L1 x CD3; CH2 LALA

How the values were obtained:
[1] = target: T1, Monkey CD3 (monkey); assay: flow cytometry, monkey T cells
T1 construct: whole, on cells; also called CD3 of monkey CD3 positive T cells

[2] = target: T2, Human CD3ε (human, UniProt P07766 23-126); assay: flow cytometry, human T cells
T2 construct: CD3 on T cells isolated from human whole blood
Text: 1) Cell preparation: T cells isolated from CD3-positive human whole blood were used for a CD3 end affinity detection of multifunctional antibody molecule; positive tumor cells of corresponding antigen were used for detecting affinity of tumor antigen; for example, CD38-positive MM. 1S cells (purchased from the Cell Resource Center of Shanghai Institutes for Biological Sciences, Chinese Academy of Sciences) or RPMI 8226 cells (purchased from the Cell Resource Center of Shanghai Institutes for Biological Sciences, Chinese Academy of Sciences) were used for CD38 antigen detection, and PD-L1 positive H358 cells (purchased from the Cell Resource Center of Shanghai Institutes for Biological Sciences, Chinese Academy of Sciences) were used for PD-L1 antigen detection, and so on. The cells were resuspended with 1% FBS-PBS, adjusted to a density of 4×10⁶/ml, and 50 μl of cells were taken from each well, and then plated at 2×10⁵ per well. Cell plating was operated on ice
2) Addition of the antibody: according to the experimental design, the antibody was diluted gradually, and dilution of antibody was operated on ice. For example, the initial concentration of antibody for dilution was 3000 nM, and the antibody was diluted by 3 times with 11 concentration gradients. The diluted antibody was added to a cell well at 50 μl per well, mixed well, and shaked and incubated at 4° C. 1100 rpm/min for 2 h; after washing, the cells were resuspend in 1% FBS-PBS, and a diluted secondary antibody PE anti-human IgG FC (Biolegend, 409304) was added with a final concentration of 8 ug/ml and a volume of 50 μl/well. At the same time, a well only added with cells and secondary antibody was set as a control, the components were mixed well, and incubated under shaking at 1100 rpm/min at 4° C. for 1 h;
5) Data analysis: the data was analyzed by a flow analysis software FlowJo 7.6 thereby obtaining an average fluorescence intensity of the specific antibody concentration, plotted by a Graphpad Prism 5 with the antibody concentration (nM) as an abscissa and the average fluorescence intensity as an ordinate; the EC50 value was calculated by the method of One site—Specific binding, and the EC50 value indicated the cell affinity of the antibody to the corresponding target antigen.

Binder | EC50 [1] [nM] | EC50 [2] [nM]
B1 | 130 | 120
B2 | 239 | 191
B3 | 194 | 177
B4 | 222 | 122
B5 | 146 | 116
B6 | 181 | 128
B7 | 166 | 168
B8 | 143 | 101
B9 | 207 | 200
B10 | 196 | 153
